Measurements from patent US7666414B2, “Methods for treating prostate cancer using modified antibodies to prostate-specific membrane antigen” (Cornell Research Foundation, Inc., dated 2010).

Target: prostate specific membrane antigen (PSMA) on LNCaP cells (human, UniProt Q04609)
Assay: ELISA on plates coated with LNCaP membrane preparation, purified antibody

Binder | fold change against the chimeric antibody [fold less]
deimmunized J415, heavy chain version 1 with light chain version 5 (antibody, V domains shown) VH: EVKLEESGGGLVQPGGSMKISCKASGFTFSNYWMNWVRQTPEKGLEWVALIRSQSNNFATHYAESVKGRVIISRDDSKSSVYLQMNSLRAEDTAVYYCTRRWNNFWGQGTTVTVSS VL: NIVMTQFPKSMSASAGERMTLTCKASENVGTYVSWYQQKPTQSPKMLIYGASNRFTGVPDRFSGSGSGTDFILTISSVQAEDLVDYYCGQSYTFPYTFGGGTKLEMK | 2
deimmunized J415, heavy chain version 2 with light chain version 5 (antibody, V domains shown) VH: EVKLEESGGGLVQPGGSMKISCVASGFTFSNYWMNWVRQTPEKGLEWVALIRSQSNNFATHYAESVKGRVIISRDDSKSSVYLQMNSLRAEDTAVYYCTRRWNNFWGQGTTVTVSS VL: NIVMTQFPKSMSASAGERMTLTCKASENVGTYVSWYQQKPTQSPKMLIYGASNRFTGVPDRFSGSGSGTDFILTISSVQAEDLVDYYCGQSYTFPYTFGGGTKLEMK | 2
